The values that follow come from article doi:10.1101/2022.08.03.502284 (bioRxiv, 2022).

This data set concerns the molecule itself. As to the kind of experiment: ONE expansion microscopy of the purified protein.

B1: full-length human GABAA receptor β3 subunit homopentamer (receptor)
chain: QSVNDPGNMSFVKETVDKLLKGYDIRLRPDFGGPPVCVGMNIDIASIDMVSEVNMDYTLTMYFQQYWRDKRLAYSGIPLNLTLDNRVADQLWVPDTYFLNDKKSFVHGVTVKNRMIRLHPDGTVLYGLRITTTAACMMDLRRYPLDEQNCTLEIESYGYTTDDIEFYWRGGDKAVTGVERIELPQFSIVEHRLVSRNVVFATGAYPRLSLSFRLKRNIGYFILQTYMPSILITILSWVSFWINYDASAARVALGITTVLTMTTINTHLRETLPKIPYVKAIDMYLMGCFVFVFLALLEYAFVNYIFFGRGPQRQKKLAEKTAKAKNDRSKSESNRVDAHGNILLTSLEVHNEMNEVSGGIGDTRNSAISFDNSGIQYRKQSMPREGHGRFLGDRSLPHKKTHLRRRSSQLKIKIPDLTDVNAIDRWSRIVFPFTFSLFNLVYWLYYVN
B1: the binding result was “binds”.
